Measurements published in patent US20180155451A1 (published 2018).

T1: FcγRIIb extracellular domain with C-terminal His tag (human, UniProt P31994 43-217)
T1 construct: extracellular domain; also called FcgRIIb; 2b; not shown: His tag at the C terminus
T1 sequence (looked up): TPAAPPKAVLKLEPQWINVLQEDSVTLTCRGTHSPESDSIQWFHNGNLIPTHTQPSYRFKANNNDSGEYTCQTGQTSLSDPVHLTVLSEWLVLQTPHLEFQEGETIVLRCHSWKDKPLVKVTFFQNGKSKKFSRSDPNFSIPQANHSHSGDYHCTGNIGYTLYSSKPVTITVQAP

B1: GpH7-A5/GpH7-B3 variant G237_10E/GpL16-k0 (heterodimerized antibody, He Ab) (antibody, human IgG1, kappa)
heavy 1: not shown
heavy 2: not shown
light: DIVMTQSPLSLPVTPGEPASISCQASESLVHSNRNTYLHWYLQKPGQSPQLLIYKVSNRFSGVPDRFSGSGSGTDFTLKISRVEAEDVGVYYCSQNTHVPPTFGQGTKVEIERTVAAPSVFIFPPSDEQLKSGTASVVCLLNNFYPREAKVQWKVDNALQSGNSQESVTEQDSKDSTYSLSSTLTLSKADYEKHKVYACEVTHQGLSSPVTKSFNRGEC
notes: Anti-glypican-3 IgG1; the alteration is in the GpH7-B3 chain only; also called G237E
B2: GpH7-A5/GpH7-B3 variant S239_06M/GpL16-k0 (heterodimerized antibody, He Ab) (antibody, human IgG1, kappa)
heavy 1: not shown
heavy 2: not shown
light: B1 light
notes: Anti-glypican-3 IgG1; the alteration is in the GpH7-B3 chain only; also called S239M
B3: GpH7-A5/GpH7-B3 variant G237_16H/GpL16-k0 (heterodimerized antibody, He Ab) (antibody, human IgG1, kappa)
heavy 1: not shown
heavy 2: not shown
light: B1 light
notes: Anti-glypican-3 IgG1; the alteration is in the GpH7-B3 chain only; also called G237H
B4: GpH7-A5/GpH7-B3 variant S239_05P/GpL16-k0 (heterodimerized antibody, He Ab) (antibody, human IgG1, kappa)
heavy 1: not shown
heavy 2: not shown
light: B1 light
notes: Anti-glypican-3 IgG1; the alteration is in the GpH7-B3 chain only; also called S239P
B5: GpH7-A5/GpH7-B3 variant P238_20W/GpL16-k0 (heterodimerized antibody, He Ab) (antibody, human IgG1, kappa)
heavy 1: not shown
heavy 2: not shown
light: B1 light
notes: Anti-glypican-3 IgG1; the alteration is in the GpH7-B3 chain only; also called P238W
B6: GpH7-A5/GpH7-B3 variant L235_04F/GpL16-k0 (heterodimerized antibody, He Ab) (antibody, human IgG1, kappa)
heavy 1: not shown
heavy 2: not shown
light: B1 light
notes: Anti-glypican-3 IgG1; the alteration is in the GpH7-B3 chain only; also called L235F
B7: GpH7-A5/GpH7-B3 variant G237_20W/GpL16-k0 (heterodimerized antibody, He Ab) (antibody, human IgG1, kappa)
heavy 1: not shown
heavy 2: not shown
light: B1 light
notes: Anti-glypican-3 IgG1; the alteration is in the GpH7-B3 chain only; also called G237W
B8: GpH7-A5/GpH7-B3 variant P238_09D/GpL16-k0 (heterodimerized antibody, He Ab) (antibody, human IgG1, kappa)
heavy 1: not shown
heavy 2: not shown
light: B1 light
notes: Anti-glypican-3 IgG1; the alteration is in the GpH7-B3 chain only; also called P238D
B9: GpH7-A5/GpH7-B3 variant P238_01G/GpL16-k0 (heterodimerized antibody, He Ab) (antibody, human IgG1, kappa)
heavy 1: not shown
heavy 2: not shown
light: B1 light
notes: Anti-glypican-3 IgG1; the alteration is in the GpH7-B3 chain only; also called P238G
B10: GpH7-A5/GpH7-B3 variant S267_08L/GpL16-k0 (heterodimerized antibody, He Ab) (antibody, human IgG1, kappa)
heavy 1: not shown
heavy 2: not shown
light: B1 light
notes: Anti-glypican-3 IgG1; the alteration is in the GpH7-B3 chain only; also called S267L
B11: GpH7-A5/GpH7-B3 variant P238_02A/GpL16-k0 (heterodimerized antibody, He Ab) (antibody, human IgG1, kappa)
heavy 1: not shown
heavy 2: not shown
light: B1 light
notes: Anti-glypican-3 IgG1; the alteration is in the GpH7-B3 chain only; also called P238A
B12: GpH7-A5/GpH7-B3 variant P238_13S/GpL16-k0 (heterodimerized antibody, He Ab) (antibody, human IgG1, kappa)
heavy 1: not shown
heavy 2: not shown
light: B1 light
notes: Anti-glypican-3 IgG1; the alteration is in the GpH7-B3 chain only; also called P238S
B13: GpH7-A5/GpH7-B3 variant V266_06M/GpL16-k0 (heterodimerized antibody, He Ab) (antibody, human IgG1, kappa)
heavy 1: not shown
heavy 2: not shown
light: B1 light
notes: Anti-glypican-3 IgG1; the alteration is in the GpH7-B3 chain only; also called V266M
B14: GpH7-A5/GpH7-B3 variant P238_15Y/GpL16-k0 (heterodimerized antibody, He Ab) (antibody, human IgG1, kappa)
heavy 1: not shown
heavy 2: not shown
light: B1 light
notes: Anti-glypican-3 IgG1; the alteration is in the GpH7-B3 chain only; also called P238Y
B15: GpH7-A5/GpH7-B3 variant G237_18N/GpL16-k0 (heterodimerized antibody, He Ab) (antibody, human IgG1, kappa)
heavy 1: not shown
heavy 2: not shown
light: B1 light
notes: Anti-glypican-3 IgG1; the alteration is in the GpH7-B3 chain only; also called G237N
B16: GpH7-A5/GpH7-B3 variant P238_08L/GpL16-k0 (heterodimerized antibody, He Ab) (antibody, human IgG1, kappa)
heavy 1: not shown
heavy 2: not shown
light: B1 light
notes: Anti-glypican-3 IgG1; the alteration is in the GpH7-B3 chain only; also called P238L
B17: GpH7-A5/GpH7-B3 variant P238_14T/GpL16-k0 (heterodimerized antibody, He Ab) (antibody, human IgG1, kappa)
heavy 1: not shown
heavy 2: not shown
light: B1 light
notes: Anti-glypican-3 IgG1; the alteration is in the GpH7-B3 chain only; also called P238T
B18: GpH7-A5/GpH7-B3 variant S267_03V/GpL16-k0 (heterodimerized antibody, He Ab) (antibody, human IgG1, kappa)
heavy 1: not shown
heavy 2: not shown
light: B1 light
notes: Anti-glypican-3 IgG1; the alteration is in the GpH7-B3 chain only; also called S267V
B19: GpH7-A5/GpH7-B3 variant P238_04F/GpL16-k0 (heterodimerized antibody, He Ab) (antibody, human IgG1, kappa)
heavy 1: not shown
heavy 2: not shown
light: B1 light
notes: Anti-glypican-3 IgG1; the alteration is in the GpH7-B3 chain only; also called P238F
B20: GpH7-A5/GpH7-B3 variant P238_11K/GpL16-k0 (heterodimerized antibody, He Ab) (antibody, human IgG1, kappa)
heavy 1: not shown
heavy 2: not shown
light: B1 light
notes: Anti-glypican-3 IgG1; the alteration is in the GpH7-B3 chain only; also called P238K
B21: GpH7-A5/GpH7-B3 variant S267_07I/GpL16-k0 (heterodimerized antibody, He Ab) (antibody, human IgG1, kappa)
heavy 1: not shown
heavy 2: not shown
light: B1 light
notes: Anti-glypican-3 IgG1; the alteration is in the GpH7-B3 chain only; also called S267I

The binders below were run against T2, FcγRIIIa extracellular domain with C-terminal His tag (human, UniProt P08637 17-208) (assay: SPR (Biacore), captured antibody, FcγR as analyte; relative to GpH7-A5/GpH7-B3/GpL16-k0 = 100).
T2 construct: extracellular domain; also called FcgRIIIa; 3a; not shown: His tag at the C terminus
T2 sequence (P08637 17-208): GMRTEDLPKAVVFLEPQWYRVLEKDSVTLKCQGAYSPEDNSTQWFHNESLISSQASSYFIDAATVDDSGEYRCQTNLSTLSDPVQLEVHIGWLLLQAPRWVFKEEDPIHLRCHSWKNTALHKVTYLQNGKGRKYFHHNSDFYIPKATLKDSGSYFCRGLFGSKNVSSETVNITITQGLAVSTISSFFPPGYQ
Experimental: (§1) Analysis of interaction between objective antibody and the FcγR was carried out using Biacore T100 (GE Healthcare). HBS-EP+ (GE Healthcare) was used as the running buffer, and the measurement temperature was set to 25° C. Chips produced by immobilizing the antigen peptide by the amine coupling method to a Series S Sencor Chip CM5 (GE Healthcare), or alternatively, chips produced by allowing preliminarily biotinylated antigen peptides to interact with and immobilize onto a Series S Sensor Chip SA (certified) (GE Healthcare) were used. Antibodies of interest were captured onto an antigen peptide-immobilized chip, and allowed to interact to each FcγR diluted with running buffer. To regenerate and repeatedly use the chip, the antibodies captured on the chip were washed off by reacting 10 mM glycine-HCl, pH 1.5.
(§2) The FcγR-binding activity of each antibody was assessed primarily using as an indicator the FcγR-binding activity and dissociation constant for FcγR.

He/Con_3a (IIIa binding) | Binder
25.4 % of HeCon Ab | B1
78.2 % of HeCon Ab | B2
17.2 % of HeCon Ab | B3
14.9 % of HeCon Ab | B4
49.7 % of HeCon Ab | B5
79.1 % of HeCon Ab | B6
19.7 % of HeCon Ab | B7
106 % of HeCon Ab | B8
33 % of HeCon Ab | B9
19.5 % of HeCon Ab | B10
31.4 % of HeCon Ab | B11
44.9 % of HeCon Ab | B12
85.8 % of HeCon Ab | B13
64.5 % of HeCon Ab | B14
20.3 % of HeCon Ab | B15
75.5 % of HeCon Ab | B16
28 % of HeCon Ab | B17
30.8 % of HeCon Ab | B18
46.7 % of HeCon Ab | B19
10.4 % of HeCon Ab | B20
25.2 % of HeCon Ab | B21

What follows are binders tested against T1, FcγRIIb extracellular domain with … in the same assay as above.
Experimental: as §1, §2

He/Con_2b (IIb binding) | Binder
114 % of HeCon Ab | B1
101 % of HeCon Ab | B2
55.2 % of HeCon Ab | B3
102 % of HeCon Ab | B4
123 % of HeCon Ab | B5
118 % of HeCon Ab | B6
193 % of HeCon Ab | B7
221 % of HeCon Ab | B8
56 % of HeCon Ab | B9
109 % of HeCon Ab | B10
57.4 % of HeCon Ab | B11
70.4 % of HeCon Ab | B12
251 % of HeCon Ab | B13
218 % of HeCon Ab | B14
180 % of HeCon Ab | B15
204 % of HeCon Ab | B16
50.7 % of HeCon Ab | B17
192 % of HeCon Ab | B18
312 % of HeCon Ab | B19
18.1 % of HeCon Ab | B20
192 % of HeCon Ab | B21
